# Test results as given in patent US20050282743A1, “Molecular interactions in cells” (Arbor Vita Corporation, priority 2001, published 2005).
# Read-outs that look alike come from different tables or passages of the source.
# T1: GST-GRIP 1 PDZ domain 5 (Homo sapiens (Human)), Q9Y3R0
# T1 chain: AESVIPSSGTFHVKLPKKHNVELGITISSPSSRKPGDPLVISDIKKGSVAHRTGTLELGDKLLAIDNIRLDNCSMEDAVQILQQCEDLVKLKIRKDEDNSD
# T2: GST-MUPP1 PDZ domain 2 (Homo sapiens (Human)), O75970
# T2 chain: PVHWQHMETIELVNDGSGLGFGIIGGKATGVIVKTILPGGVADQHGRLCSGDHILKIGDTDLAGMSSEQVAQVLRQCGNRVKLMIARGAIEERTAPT
# T3: GST-GRIP 1 PDZ domain 3 (Homo sapiens (Human)), Q9Y3R0
# T3 chain: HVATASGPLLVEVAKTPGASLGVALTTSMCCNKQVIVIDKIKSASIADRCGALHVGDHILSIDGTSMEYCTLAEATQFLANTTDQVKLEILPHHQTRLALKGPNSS
# T4: GST-KIAA1284 PDZ domain 1 (Homo sapiens (Human)), Q9ULD6
# T4 chain: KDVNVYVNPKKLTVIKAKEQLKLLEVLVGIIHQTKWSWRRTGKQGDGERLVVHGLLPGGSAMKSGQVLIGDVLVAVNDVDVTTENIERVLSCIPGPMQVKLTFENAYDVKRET
# T5: GST-MUPP1 PDZ domain 3 (Homo sapiens (Human)), O75970
# T5 chain: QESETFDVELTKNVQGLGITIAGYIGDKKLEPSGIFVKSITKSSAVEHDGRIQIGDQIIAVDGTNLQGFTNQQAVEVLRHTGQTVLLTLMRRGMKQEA
# T6: GST-MUPP1 PDZ domain 6 (Homo sapiens (Human)), O75970
# T6 chain: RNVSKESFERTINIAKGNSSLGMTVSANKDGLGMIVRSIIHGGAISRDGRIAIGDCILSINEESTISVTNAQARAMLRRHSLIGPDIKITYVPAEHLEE
# T7: GST-SITAC-18 PDZ domain 1 (Homo sapiens (Human)), Q9H190
# T7 chain: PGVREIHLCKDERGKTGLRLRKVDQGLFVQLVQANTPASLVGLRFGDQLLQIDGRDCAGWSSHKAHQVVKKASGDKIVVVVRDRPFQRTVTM
# T8: GST-SITAC-18 PDZ domain 2 (Homo sapiens (Human)), Q9H190
# T8 chain: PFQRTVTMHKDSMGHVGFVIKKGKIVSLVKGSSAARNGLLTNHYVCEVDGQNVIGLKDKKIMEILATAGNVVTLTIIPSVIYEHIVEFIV
# T9: GST-X-11 beta PDZ domain 1 (Rattus norvegicus (Rat)), O35431
# T9 chain: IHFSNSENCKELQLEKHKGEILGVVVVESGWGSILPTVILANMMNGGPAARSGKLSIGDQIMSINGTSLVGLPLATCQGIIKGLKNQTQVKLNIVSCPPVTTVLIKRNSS
# T10: GST-ZO-3 PDZ domain 2 (Homo sapiens (Human)), O95049
# T10 chain: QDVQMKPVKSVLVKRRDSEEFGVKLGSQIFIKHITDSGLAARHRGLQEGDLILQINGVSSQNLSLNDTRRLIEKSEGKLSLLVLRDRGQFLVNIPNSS
# T11: GST-Syntrophin 1 alpha PDZ domain 1 (Homo sapiens (Human)), Q13424
# T11 chain: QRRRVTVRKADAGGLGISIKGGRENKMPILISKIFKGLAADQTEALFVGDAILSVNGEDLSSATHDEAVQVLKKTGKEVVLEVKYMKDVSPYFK
# T12: GST-Connector Enhancer PDZ domain 1 (Homo sapiens (Human)), Q969H4
# T12 chain: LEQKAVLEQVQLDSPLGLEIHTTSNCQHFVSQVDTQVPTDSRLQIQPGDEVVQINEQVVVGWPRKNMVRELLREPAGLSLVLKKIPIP
# T13: GST-FLJ11215 PDZ domain 1 (Mus musculus (Mouse)), O88952
# T13 chain: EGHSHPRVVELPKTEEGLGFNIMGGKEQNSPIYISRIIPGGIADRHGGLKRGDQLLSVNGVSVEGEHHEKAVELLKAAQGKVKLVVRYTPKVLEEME
# T14: GST-KIAA1095 PDZ domain 1 (Homo sapiens (Human)), Q9UPQ7
# T14 chain: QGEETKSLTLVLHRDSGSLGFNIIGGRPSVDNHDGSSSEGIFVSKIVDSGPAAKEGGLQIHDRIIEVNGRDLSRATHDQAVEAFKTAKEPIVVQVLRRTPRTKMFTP
# T15: GST-PDZK1 PDZ domains 2, 3, 4, Q5T2W1
# T15 chain: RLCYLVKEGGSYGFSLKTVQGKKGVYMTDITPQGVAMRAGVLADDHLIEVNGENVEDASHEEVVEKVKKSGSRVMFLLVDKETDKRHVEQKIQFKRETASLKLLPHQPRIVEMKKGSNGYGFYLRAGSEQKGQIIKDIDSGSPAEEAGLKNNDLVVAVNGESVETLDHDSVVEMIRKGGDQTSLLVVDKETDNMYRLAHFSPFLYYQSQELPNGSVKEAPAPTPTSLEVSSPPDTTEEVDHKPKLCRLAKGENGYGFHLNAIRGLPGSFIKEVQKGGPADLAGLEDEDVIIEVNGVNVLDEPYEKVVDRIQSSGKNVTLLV
# T16: GST-Shank 3 PDZ domain 1 (human (hypothetical, computer cloned)), Q9BYB0
# T16 chain: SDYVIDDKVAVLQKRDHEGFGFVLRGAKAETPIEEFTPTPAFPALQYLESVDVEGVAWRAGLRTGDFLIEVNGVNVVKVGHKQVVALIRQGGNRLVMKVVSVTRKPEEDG
# Key:
# Experiment in all cases: G' assay
# [1] = biological target: T1, GST-GRIP 1 PDZ domain 5 (Homo sapiens …)
# [2] = biological target: T2, GST-MUPP1 PDZ domain 2 (Homo sapiens …)
# [3] = biological target: T3, GST-GRIP 1 PDZ domain 3 (Homo sapiens …)
# [4] = biological target: T4, GST-KIAA1284 PDZ domain 1 (Homo sapiens …)
# [5] = biological target: T5, GST-MUPP1 PDZ domain 3 (Homo sapiens …)
# [6] = biological target: T6, GST-MUPP1 PDZ domain 6 (Homo sapiens …)
# [7] = biological target: T7, GST-SITAC-18 PDZ domain 1 (Homo sapiens …)
# [8] = biological target: T8, GST-SITAC-18 PDZ domain 2 (Homo sapiens …)
# [9] = biological target: T9, GST-X-11 beta PDZ domain 1 (Rattus …)
# [10] = biological target: T10, GST-ZO-3 PDZ domain 2 (Homo sapiens …)
# [11] = biological target: GST-KIAA0316 PDZ domain 1 (Homo sapiens (Human)), Q14CM0
# Sequence of GST-KIAA0316 PDZ domain 1 (Homo sapiens (Human)), Q14CM0 (Q14CM0 72-159): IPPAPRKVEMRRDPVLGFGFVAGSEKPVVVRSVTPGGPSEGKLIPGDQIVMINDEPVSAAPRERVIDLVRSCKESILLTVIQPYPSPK
# [12] = biological target: T11, GST-Syntrophin 1 alpha PDZ domain 1 …
# [13] = biological target: T12, GST-Connector Enhancer PDZ domain 1 …
# [14] = biological target: GST-PIST PDZ domain 1 (Mus musculus (Mouse)), Q8BH60
# [15] = biological target: T13, GST-FLJ11215 PDZ domain 1 (Mus musculus …)
# [16] = biological target: T14, GST-KIAA1095 PDZ domain 1 (Homo sapiens …)
# [17] = biological target: T15, GST-PDZK1 PDZ domains 2, 3, 4, Q5T2W1
# [18] = biological target: T16, GST-Shank 3 PDZ domain 1 (human …)
# [19] = remark: other sources report otherwise
# Note: key of the grades not given here.
binder,measurement,setting,value
"ELLQFCRTPNPALKNGQYWV (modifications not checked) [CSPG4 (chondroitin sulfae proteoglycan 4, melanoma-associated)]",Classification,[1],1 A450 class
same,Classification,[2],5 A450 class
ILNSIQVMRAQMNQIQSVEV (modifications not checked) [ephrin B2],Classification,[3],1 A450 class
same,Classification,[1],1 A450 class
same,Classification,[4],1 A450 class
same,Classification,[5],1 A450 class
same,Classification,[6],2 A450 class
same,Classification,[7],3 A450 class
same,Classification,[8],3 A450 class
same,Classification,[9],2 A450 class
same,Classification,[10],2 A450 class
VPGALDYAAFSSALYGESDL (modifications not checked) [a-actinin 2],Classification,[11],1 A450 class
same,Classification,[12],3 A450 class
VGTLLLERVIFPSVKIATLV (modifications not checked) [AdenoE4 typ9],Classification,[13],3 A450 class
same,Classification,[14],1 A450 class
TQGFPGPATWRRISSLESEV (modifications not checked) [NMDA Glutamate Receptor 2C (cysteine-free)],Classification,[15],1 A450 class
same,Classification,[16],1 A450 class
same,Classification,[12],4 A450 class
AWDDSARAAGGQGLHVTAL (modifications not checked) [LPAP],Classification,[3],1 A450 class
same,Classification,[11]; [19],1 A450 class
same,Classification,[17],3 A450 class
same,Classification,[14],1 A450 class
same,Classification,[18],3 A450 class
PIPAGGCTFSGIFPTLTSPL (modifications not checked) [KIA 1481],Classification,[16],1 A450 class
same,Classification,[17],2 A450 class
same,Classification,[18],3 A450 class
KTMPAAMYRLLTAQEQPVYI (modifications not checked) [MINT-1],Classification,[2],1 A450 class
same,Classification,[5],3 A450 class
HDFRRAFKKILARGDRKRIV (modifications not checked) [alpha-2A Adrenergic receptor],Classification,[4],1 A450 class
same,Classification,[6],2 A450 class
same,Classification,[7],4 A450 class
same,Classification,[8],4 A450 class
same,Classification,[9],2 A450 class
same,Classification,[10],3 A450 class
QISPGGLEPPSEKHFRETEV (modifications not checked) [TAX],Classification,[13]; [19],1 A450 class
same,Classification,[15],1 A450 class
